B1: Twister Ribozyme (parent)
chain: AACACUGCCAAUGCCGGUCCCAAGCCCGGAUAAAAGUGGAGGGGGCGG

The variants in the data set derive from B1. The data set can be described thus: self-cleavage, relative activity (ratio to wild type); higher = more cleavage; co-transcriptional.
For the variant AACACUGCCAAUGCCGGUCCCAAGCCCGGAUAAAAGGGGGGGGGGCGG [U37G A40G], the self-cleavage came out at 0.155.

With AACACUACCAAUGCCGGUCCCAAGCCCGGAUAAAAGUGGAGGUGGCGG [G7A G43U], the self-cleavage came to 0.152.

As for AACACUGCCAGUGCCGGUCCCAAGCCCGGAUAGAAGUGGAGGGGGCGG [A11G A33G], the self-cleavage is 0.84.

Regarding AACACUGCCAAGGCCGGUCCCAAGCCCCGAUAAAAGUGGAGGGGGCGG [U12G G28C], the self-cleavage is 0.344.

For the variant AACACUGCCAAUGCCGGUCCCAAGCCCGGAUAAAACUGGUGGGGGCGG [G36C A40U], the self-cleavage is 0.149.

In the case of AACACUGCCAAGGCCGGUCCCAAGCCCGGAUAAAAGUGGAGGGGUCGG [U12G G45U], the self-cleavage was determined as 0.419.

As for AACACUGCCAAUGCCGGUCCCAAGCCCGGAUAAAAGUGGAGGGGGCAU [G47A G48U], the self-cleavage is 1.47.

For AACACUGCCAAUGACGGUCCCAAGCCCGGAUAAAAGUUGAGGGGGCGG [C14A G38U], the self-cleavage was determined as 0.676.

Turning to AACACUGCCAAUGCCCGUCCCAAGCUCGGAUAAAAGUGGAGGGGGCGG [G16C C26U], the self-cleavage came to 0.171.

With AACACUGCCAAUGCCGGUCCCAAGGCCGGAUCAAAGUGGAGGGGGCGG [C25G A32C], the self-cleavage came out at 0.261.

In the case of AACACUGCCAAUGCCGGUCUCAAGCCCGCAUAAAAGUGGAGGGGGCGG [C20U G29C], the self-cleavage was found to be 0.305.

Take AACACUGCCAAUGCAGGUCUCAAGCCCGGAUAAAAGUGGAGGGGGCGG [C15A C20U]: the self-cleavage came out at 0.397.

For the variant AACACUGCCAAUGCCGGUCCCAAGCCCGGAUCAAUGUGGAGGGGGCGG [A32C A35U], the self-cleavage came out at 1.05.

Take AACACUGCCAAUGCCGGUCCCAAGCCCGGAUAGAAGUGGAGGGGACGG [A33G G45A]: the self-cleavage is 0.803.

On to CACACUGCCAAUGCCGGUACCAAGCCCGGAUAAAAGUGGAGGGGGCGG [A1C C19A], for which the self-cleavage was found to be 0.123.

As to AACACUGCCAAUGCCGGUCCCAAGCCAGGAUGAAAGUGGAGGGGGCGG [C27A A32G], the self-cleavage came out at 0.483.

As for AACACAGCAAAUGCCGGUCCCAAGCCCGGAUAAAAGUGGAGGGGGCGG [U6A C9A], the self-cleavage worked out at 0.153.

On to AACACUGCCAAUGCGGGUCCCAAUCCCGGAUAAAAGUGGAGGGGGCGG [C15G G24U], for which the self-cleavage was 0.0758.

For AACACUGCCAAUGCCGGUCCCAAGCCCGGUUACAAGUGGAGGGGGCGG [A30U A33C], the self-cleavage was 0.847.

As for AACACAGCCAAUGCCGGUCCCAAGCCCGGAUAAAAGUGGCGGGGGCGG [U6A A40C], the self-cleavage was determined as 0.15.

Consider AACACUGACAAUGCCGGUCCCAAGCCCGGAUAAAAGUAGAGGGGGCGG [C8A G38A], for which the self-cleavage turned out to be 0.343.

As to AACACUGACAAUGCCGGUCCCAAGCCCGGAUAAAAGUCGAGGGGGCGG [C8A G38C], the self-cleavage stood at 0.161.

AACACUGCCAAAGCCGGUCCCAAGCCCGGAUAAAAGUGGAGGCGGCGG [U12A G43C]: the self-cleavage was determined as 0.255.

As for AAGACUGCCAAUGCCGGUCCCAAGCCCGGAUAAAAGUGGCGGGGGCGG [C3G A40C], the self-cleavage was 0.12.

As to AACACUGCCAAUGCCGGUCCCAAGCCCGGAUAAACGUGGAGGGAGCGG [A35C G44A], the self-cleavage is 0.87.

Take AACACUGCCAAUGCCGGCCCCAAGCCCGGAUAAAACUGGAGGGGGCGG [U18C G36C]: the self-cleavage stood at 0.1.

On to AAAACUGCCAAUGCCGGUCCCAAGCCCGGAUAAUAGUGGAGGGGGCGG [C3A A34U], for which the self-cleavage came out at 0.252.

Turning to AACACUGCGAAUGCCGGUCCCAAGCCCGUAUAAAAGUGGAGGGGGCGG [C9G G29U], the self-cleavage was 0.447.

In the case of CACACUGCCAAUGCCGGUCCCAAGCGCGGAUAAAAGUGGAGGGGGCGG [A1C C26G], the self-cleavage amounted to 0.171.

Regarding AACACUGCCAAUGCCGGUCCCAGGCCCGGAUAAAAGUGGGGGGGGCGG [A23G A40G], the self-cleavage worked out at 0.123.

Turning to AACACUGCCAAUGCCUGUCCCAAGCCCGGAUAAAAGUGGAGGGGGAGG [G16U C46A], the self-cleavage was 0.662.

On to ACCACUGCCAAUGCCGGUCCCAAGCCCGGAGAAAAGUGGAGGGGGCGG [A2C U31G], for which the self-cleavage is 0.177.

With AACACUUCCAAUGCCGGUCCCAAGCCCGUAUAAAAGUGGAGGGGGCGG [G7U G29U], the self-cleavage came out at 0.0673.

In the case of AACACUGCCAAUGCCGUUCCCAAGCCCGGAUAAAAGUGGAGCGGGCGG [G17U G42C], the self-cleavage was 0.126.

On to AACACUGCCAAUGCCGGUGCCAAGCCCGGAUAAAAGUGGAGGGGGCCG [C19G G47C], for which the self-cleavage turned out to be 0.193.

For the variant AAUACUGCCAAUGCCGGUCCCAAGCCAGGAUAAAAGUGGAGGGGGCGG [C3U C27A], the self-cleavage amounted to 0.159.

With AACACGGCCAAUGCCGGUCCCAAGCCCGGAUAAUAGUGGAGGGGGCGG [U6G A34U], the self-cleavage came to 0.493.

As to AUCACUGCCAAUGCCGGUACCAAGCCCGGAUAAAAGUGGAGGGGGCGG [A2U C19A], the self-cleavage stood at 0.129.

AACACUGCCAAUGCCGGUCCAAAGCCCGGAUAAAAGUGGAGGGGGCGG [C21A]: the self-cleavage came to 0.13.

As for AACACUGCCAAUGCCGGUCCCAACCCCGGAUAGAAGUGGAGGGGGCGG [G24C A33G], the self-cleavage stood at 0.101.

For the variant AACACUGCCAAUGCCGGUCCCAAGUCCGGAUAAAAGUGCAGGGGGCGG [C25U G39C], the self-cleavage worked out at 0.117.

As to AACACCGCCAAUGCCGGUCCCAAGCCCUGAUAAAAGUGGAGGGGGCGG [U6C G28U], the self-cleavage worked out at 0.295.

In the case of AACACUGCCAAUGCCGGUACCAAGCCCGGAUAAAAGUGGCGGGGGCGG [C19A A40C], the self-cleavage was 0.148.

On to AACACUGCCAAUGCCGGUCCCAAGCCCGGAUAAAAGAGGAGCGGGCGG [U37A G42C], for which the self-cleavage came out at 0.252.

Consider AACACUGCCAUUGGCGGUCCCAAGCCCGGAUAAAAGUGGAGGGGGCGG [A11U C14G], for which the self-cleavage is 0.203.

As for AACACUGCCAAUGUCGGUCCCAAGCCCGGAUAAACGUGGAGGGGGCGG [C14U A35C], the self-cleavage came to 1.05.

For the variant AACUCUGCCAAUGCCGGUCCCAAGACCGGAUAAAAGUGGAGGGGGCGG [A4U C25A], the self-cleavage worked out at 0.029.

AACACUGCCAAUGCCGGUCCCAAGCCAGGAUAAAAGAGGAGGGGGCGG [C27A U37A]: the self-cleavage was found to be 0.138.

Turning to AACACUGCCAAUGCCGGUCCCAAGUCCGGAUAACAGUGGAGGGGGCGG [C25U A34C], the self-cleavage was found to be 0.0649.

With AACACUGCCAAUGCCGGUCCCAAGCACGGAUAAAAGUGGAGAGGGCGG [C26A G42A], the self-cleavage was found to be 0.132.

In the case of AACACUCCCAAUGCCGGUCCCAAGCCCGGAUACAAGUGGAGGGGGCGG [G7C A33C], the self-cleavage was 0.0837.

Turning to AACACUGCCAAUGCCGGUCCCAAGCCCGGAUUAAAGUGGAGAGGGCGG [A32U G42A], the self-cleavage was 0.324.

Take AACACUGCUAAUGCCGGUCCCAAGCCCGGAUAAAAGGGGAGGGGGCGG [C9U U37G]: the self-cleavage is 0.419.

As to AAUACUGCCAAUGCCGGUACCAAGCCCGGAUAAAAGUGGAGGGGGCGG [C3U C19A], the self-cleavage was determined as 0.0875.
